What is called IC50 is the concentration at which inhibition is half-maximal.

These results are taken from US20240392013A1, “IL1RAP ANTIBODIES AND USES THEREOF” (STELEXIS THERAPEUTICS, LLC, priority 2021, published 2024).

In test [1] the test system is IL1-induced NFκB activity. The test is described as follows: HEK-BlueIL1β NFκB Reporter Assay. The format is cell-based. The following applies: nM range, read-out: IC50, inhibition of IL1-induced NFκB activity. The method, then:
The HEK-Blue IL1β (Invivogen, Cat #hkb-il1b) cell line was used to monitor NFκB activity upon stimulation with IL1β cytokine. In this cell line the secreted embryonic alkaline phosphatase reporter gene (SEAP) is inducibly expressed under the control of IFN-β minimal promoter fused to NFκB/AP-1. Specificity to IL1β cytokine was achieved by blockage of TNF-α response. The cells were maintained in the presence of hygromycin (200 μg/ml) and zeocin (100 μg/ml).
For the functional assay, cells were plated at a density of 5×10^4 cells/well in 96-well plates. Cells were treated with each antibody at the highest concentration of 200 μg/ml followed by seven serial 1:3 dilutions and incubated for 45 minutes at 37° C./5% CO2 in humified incubator. Cells were then stimulated with IL1β ([…]) and incubated overnight at 37° C./5% CO2 in humified incubator. Every treatment was conducted in triplicates. Following, supernatants from each well were mixed with Quanti-Blue substrate (Invivogen, CA USA; Cat #rep-qb1) according to manufacturer's recommendations and secreted SEAP was measured using spectrophotometer at 650 nm.
Background: Reporter assays use an easily measured gene product as a stand-in for the process of interest.

Test [2] concerns the target T1, IL1R1/IL1β/IL1RAP complex (Homo sapiens, UniProt Q9NPH3).
T1 construct: extracellular domain Fc-tagged, Cat #10121-H02H; Fc; purchased Sino Biological 10121-H02H (IL1RAP-Fc); 10126-H08H (IL1R1-His); 10139-HNAE (IL1β)
T1 sequence (Q9NPH3 21-367 limits assumed): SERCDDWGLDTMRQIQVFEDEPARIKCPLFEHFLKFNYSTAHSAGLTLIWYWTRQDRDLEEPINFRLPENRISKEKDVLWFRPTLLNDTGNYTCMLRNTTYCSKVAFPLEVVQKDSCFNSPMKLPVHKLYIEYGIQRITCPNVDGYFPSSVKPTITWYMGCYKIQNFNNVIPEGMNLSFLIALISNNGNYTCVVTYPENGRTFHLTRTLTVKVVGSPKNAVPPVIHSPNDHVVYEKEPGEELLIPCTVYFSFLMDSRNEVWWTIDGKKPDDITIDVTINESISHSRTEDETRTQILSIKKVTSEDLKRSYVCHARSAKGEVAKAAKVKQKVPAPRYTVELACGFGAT
Put plainly: Blocking of IL1R1/IL1β/IL1RAP complex formation, cell-free ELISA. The format is biochemical. The following applies: FIG. 4. The method, then: High-binding 96-well plates were coated with IL1RAP-Fc protein (Sino Biological, Cat #10121-H02H) at concentration of 4 µg/ml and incubated overnight at 4° C. After 3× washes with 0.05% Tween-20 in PBS, pH 7.5, plates were blocked with 1% BSA in PBS for 1 hour at room temperature. Following, wells were incubated with each antibody at concentration of 50 nM for 1 hour at room temperature. Plates were then washed 3× and wells were incubated with premixed complex of IL1R1-His protein (Sino Biological, Cat #10126-H08H) at concentration of […] and IL1β cytokine (Sino Biological, Cat #10139-HNAE) at concentration of […] 1 hour at room temperature. IL1R1/IL1β complex was preincubated in assay buffer (1% BSA in PBS, pH 7.5) for 20 min at room temperature. After 3× washes, plates were incubated with anti-His HRP detection antibody (Medna, Cat #D8212, […]) for 1 hour at room temperature. Following 5× washes, SuperPico chemiluminescent substrate was applied to wells and signal was read on Spectramax M5.

For a further test, the system named is A431 cells. The test is described as follows: IL-36-induced IL-8 secretion, ELISA. Format: cell-based, human. The settings on record: IL-36γ, 72 hours, dose-dependent. The method, then:
Methods: A431 cells were seeded on CytoOne® 24 well plate (USA Scientific, Cat #CC7682-7524) at 0.05×10^6/mL and were kept at 37° C./5% CO2 in humified incubator. After 6 hours the cells were treated with IL-36γ (0.5 ng/ml) in the presence or absence of IL1RAP antibodies at 66 nM, 200 nM, 666 nM and […]. Cell culture media was collected after 72 hours and was centrifuged at 4° C. for 5 min. All supernatant samples were analyzed in triplicates. Human IL-8 microplate (R&D cat #890462) was incubated for 2 hours at room temperature with standard, control, or supernatant samples (1001) diluted in assay Diluent RD1-85 (1001). Samples were aspirated and washed with wash buffer (R&D Part #895003) for four times. Human IL-8 conjugate (200 μl) (R&D cat #890465) was added to each well and incubated for 2 hours at room temperature. Aspiration/wash step was repeated as stated above. Equal volume of substrate color reagent A (R&D, cat #895000) and B (R&D, cat #895001) were mixed, and the substrate solution (200 ul) was added to each well and incubated for 20 minutes at room temperature in the dark. Stop solution (501) (R&D, cat #895032) was added to each well and optical density of each well was determined at 450 nm with Cytation™ Cell Imaging Multi-Mode Reader (BioTek).
In general terms: An ELISA detects its analyte on a solid surface through an enzyme-linked reagent.

B1: 74804_12A21B: anti-IL1RAP mAb; VH SEQ ID NO:6, VL SEQ ID NO:23, κ light chain (antibody, V domains shown)
VH: QVQLLQSGAEVKKPGSSVKVSCKASGGTFSIYAIDWVRQAPGQGLEWMGGIIPIFGTANSAQKFQGRVTITADKSTSTAYMELSSLRSEDTAVYYCARNGATSDAFDMWGQGTMVTVSS
VL: EIVLTQSPGTLSLSPGERATLSCRASLSVSSNYLAWFQQRPGQAPRLLIHGVSRRATGIPDRFSGSGSGTDFTLTISRLEPEDFAVYYCQQYGSSPLTFGGGTKVEIK
modifications: 74804_12A21B VH and 74804_29D13A VH; 74804_12A21B VL
Take B1: the IC50 in test [1] amounted to 1.31 nM. Moreover, the “Blocking of IL1R1/IL1β/IL1RAP complex formation” value in test [2] is listed as “block IL1R1/IL1β/IL1RAP complex formation in a dose dependent manner”. In addition, the “IL-36-induced IL-8 secretion” value in the test on A431 cells is listed as “inhibited”.

B2: 74804_43F04A: anti-IL1RAP mAb; VH SEQ ID NO:7, VL SEQ ID NO:22, κ light chain (antibody, V domains shown)
VH: QVQLLQSGAEVKKPGSSVKVSCKASGGTFSIYAIDWVRQAPGQGLEWMGGIIPIFGTENSAQNFQGRITITADKSTNTAYMELSSLRSEDTAVYYCARNGATSDAFDIWGQGTMVTVFS
VL: EIVLTQSPGTLSLSPGERATLSCRASLSVSSNYLAWFQQRPGQAPRLLIYGVSRRATGIPDRFSGSGSGTDFTLTISRLEPEDFAVYYCQQYGSSPLTFGGGTKVEIK
modifications: 74804_43F04A VH; 74804_07K10A VL, 74804_29D13A VL and 74804_43F04A VL
Consider B2, for which, in test [1], the 50% inhibitory concentration (IC50) came to 2.29 nM. Besides, the “Blocking of IL1R1/IL1β/IL1RAP complex formation” value in test [2] is given as “block IL1R1/IL1β/IL1RAP complex formation in a dose dependent manner”. Besides, the “IL-36-induced IL-8 secretion” value in the test on A431 cells is reported as “inhibited”.
